Results: PMC12392869 (2025)

Molecular target: biotinylated NeoNectin candidate 1 (NN-C1) (biotin (N-terminal biotin; enzymatic biotinylation of the Avi-tag))
Assay: BLI

- Kd: 1000 nM
B1: integrin αvβ8 ectodomain (complex)
chain 1: FNLDVDSPAEYSGPEGSYFGFAVDFFVPSASSRMFLLVGAPKANTTQPGIVEGGQVLKCDWSSTRRCQPIEFDATGNRDYAKDDPLEFKSHQWFGASVRSKQDKILACAPLYHWRTEMKQEREPVGTCFLQDGTKTVEYAPCRSQDIDADGQGFCQGGFSIDFTKADRVLLGGPGSFYWQGQLISDQVAEIVSKYDPNVYSIKYNNQLATRTAQAIFDDSYLGYSVAVGDFNGDGIDDFVSGVPRAARTLGMVYIYDGKNMSSLYNFTGEQMAAYFGFSVAATDINGDDYADVFIGAPLFMDRGSDGKLQEVGQVSVSLQRASGDFQTTKLNGFEVFARFGSAIAPLGDLDQDGFNDIAIAAPYGGEDKKGIVYIFNGRSTGLNAVPSQILEGQWAARSMPPSFGYSMKGATDIDKNGYPDLIVGAFGVDRAILYRARPVITVNAGLEVYPSILNQDNKTCSLPGTALKVSCFNVRFCLKADGKGVLPRKLNFQVELLLDKLKQKGAIRRALFLYSRSPSHSKNMTISRGGLMQCEELIAYLRDESEFRDKLTPITIFMEYRLDYRTAADTTGLQPILNQFTPANISRQAHILLDCGEDNVCKPKLEVSVDSDQKKIYIGDDNPLTLIVKAQNQGEGAYEAELIVSIPLQADFIGVVRNNEALARLSCAFKTENQTRQVVCDLGNPMKAGTQLLAGLRFSVHQQSEMDTSVKFDLQIQSSNLFDKVSPVVSHKVDLAVLAAVEIRGVSSPDHVFLPIPNWEHKENPETEEDVGPVVQHIYELRNNGPSSFSKAMLHLQWPYKYNNNTLLYILHYDIDGPMNCTSDMEINPLRIKISSLQTTEKNDTVAGQGERDHLITKRDLALSEGDIHTLGCGVAQCLKIVCQVGRLDRGKSAILYVKSLLWTETFMNKENQNHSYSLKSSASFNVIEFPYKNLPIEDITNSTLVTTNVTWGIQPAPMPV
chain 2: EDNRCASSNAASCARCLALGPECGWCVQEDFISGGSRSERCDIVSNLISKGCSVDSIEYPSVHVIIPTENEINTQVTPGEVSIQLRPGAEANFMLKVHPLKKYPVDLYYLVDVSASMHNNIEKLNSVGNDLSRKMAFFSRDFRLGFGSYVDKTVSPYISIHPERIHNQCSDYNLDCMPPHGYIHVLSLTENITEFEKAVHRQKISGNIDTPEGGFDAMLQAAVCESHIGWRKEAKRLLLVMTDQTSHLALDSKLAGIVVPNDGNCHLKNNVYVKSTTMEHPSLGQLSEKLIDNNINVIFAVQGKQFHWYKDLLPLLPGTIAGEIESKAANLNNLVVEAYQKLISEVKVQVENQVQGIYFNITAICPDGSRKPGMEGCRNVTSNDEVLFNVTVTMKKCDVTGGKNYAIIKPIGFNETAKIHIHRNCSCQCEDNRGPKGKCVDETFLDSKCFQCDENKCHFDEDQFSSESCKSHKDQPVCSGRGVCVCGKCSCHKIKLGKVYGKYCEKDDFSCPYHHGNLCAGHGECEAGRCQCFSGWEGDRCQCPSAAAQHCVNSKGQVCSGRGTCVCGRCECTDPRSIGRFCEHCPTCYTACKENWNCMQCLHPHNLSQAILDQCKTSCALMEQQHYVDQTSECFSSPSYLR
